Tests used:
Assay in all cases: negative-stain EM
[1] = target: GhV F I268F/Q287P ectodomain (Ghanaian virus (GhV))
[2] = target: GhV F I268F/Q287P/S196C/A215C ectodomain (Ghanaian virus (GhV))
[3] = target: GhV F S196C/A215C ectodomain (Ghanaian virus (GhV))

GhV F I268F/Q287P ectodomain (domain or fragment)
stoichiometry N [1]: 3

GhV F I268F/Q287P/S196C/A215C ectodomain (domain or fragment)
stoichiometry N [2]: 3

GhV F S196C/A215C ectodomain (domain or fragment)
stoichiometry N [3]: 3

Reference: publication doi:10.1101/2023.08.20.554025
